Results published in patent publication US20210221894A1 (DRAGONFLY THERAPEUTICS, published 2021).

T1: human DLL3-His (human, UniProt Q9NYJ7 27-492)
T1 construct: also called hDLL3
T1 sequence: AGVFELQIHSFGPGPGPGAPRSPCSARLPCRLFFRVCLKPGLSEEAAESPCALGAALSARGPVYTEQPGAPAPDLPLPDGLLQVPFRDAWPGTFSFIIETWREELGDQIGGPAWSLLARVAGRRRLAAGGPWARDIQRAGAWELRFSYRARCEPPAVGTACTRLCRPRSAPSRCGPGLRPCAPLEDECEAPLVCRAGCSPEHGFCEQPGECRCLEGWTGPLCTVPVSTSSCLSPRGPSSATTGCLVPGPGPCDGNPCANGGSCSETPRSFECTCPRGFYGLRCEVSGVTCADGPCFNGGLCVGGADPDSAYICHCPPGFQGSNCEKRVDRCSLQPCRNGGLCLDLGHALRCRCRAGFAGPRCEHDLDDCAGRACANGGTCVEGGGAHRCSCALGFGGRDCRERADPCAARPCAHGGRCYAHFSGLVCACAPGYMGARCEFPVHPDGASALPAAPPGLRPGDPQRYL

T2: recombinant human DLL3 (ELISA coat) (human, UniProt Q9NYJ7 27-492)
T2 sequence: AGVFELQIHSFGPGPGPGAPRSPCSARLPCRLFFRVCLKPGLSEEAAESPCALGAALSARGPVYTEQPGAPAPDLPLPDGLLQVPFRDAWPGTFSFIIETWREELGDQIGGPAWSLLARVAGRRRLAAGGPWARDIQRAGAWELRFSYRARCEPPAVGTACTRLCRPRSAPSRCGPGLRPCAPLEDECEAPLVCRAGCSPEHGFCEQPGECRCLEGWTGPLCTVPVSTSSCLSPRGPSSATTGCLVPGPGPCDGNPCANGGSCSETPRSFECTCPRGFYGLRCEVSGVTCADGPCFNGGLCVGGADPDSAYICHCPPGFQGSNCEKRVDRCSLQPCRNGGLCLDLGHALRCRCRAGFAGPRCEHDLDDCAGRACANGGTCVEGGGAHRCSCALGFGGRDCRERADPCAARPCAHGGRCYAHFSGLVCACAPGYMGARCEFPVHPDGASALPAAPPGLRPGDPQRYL

T3: recombinant human DLL1 (human, UniProt O00548 18-540, limits assumed)
T3 sequence (looked up): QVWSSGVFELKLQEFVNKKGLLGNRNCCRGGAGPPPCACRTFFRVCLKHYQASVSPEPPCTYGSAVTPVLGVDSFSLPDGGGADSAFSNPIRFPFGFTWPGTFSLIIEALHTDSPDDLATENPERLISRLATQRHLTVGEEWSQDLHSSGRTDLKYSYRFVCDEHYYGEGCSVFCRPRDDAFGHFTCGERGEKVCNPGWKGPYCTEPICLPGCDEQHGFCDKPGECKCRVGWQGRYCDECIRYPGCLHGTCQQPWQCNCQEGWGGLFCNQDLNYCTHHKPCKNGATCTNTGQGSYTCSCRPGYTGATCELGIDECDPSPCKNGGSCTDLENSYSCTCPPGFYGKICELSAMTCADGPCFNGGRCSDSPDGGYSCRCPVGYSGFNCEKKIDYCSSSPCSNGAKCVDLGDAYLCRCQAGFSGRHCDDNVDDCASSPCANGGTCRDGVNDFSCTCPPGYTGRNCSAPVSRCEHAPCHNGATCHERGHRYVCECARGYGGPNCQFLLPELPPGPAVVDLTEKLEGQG

T4: recombinant mouse NKG2D-Fc fusion protein (mouse; human, UniProt O54709 90-232)
T4 construct: extracellular domain; also called Mouse NKG2D-Fc-biotin; not shown: human IgG1 Fc domain
T4 sequence (looked up): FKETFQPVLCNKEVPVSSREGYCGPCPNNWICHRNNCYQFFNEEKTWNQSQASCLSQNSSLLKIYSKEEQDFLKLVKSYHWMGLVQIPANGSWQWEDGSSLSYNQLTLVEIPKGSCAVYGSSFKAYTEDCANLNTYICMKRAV

T5: recombinant human NKG2D-Fc fusion protein (human, UniProt P26718 73-216)
T5 construct: extracellular domain; also called NKG2D-Fc-biotin; not shown: human IgG1 Fc domain
T5 sequence (looked up): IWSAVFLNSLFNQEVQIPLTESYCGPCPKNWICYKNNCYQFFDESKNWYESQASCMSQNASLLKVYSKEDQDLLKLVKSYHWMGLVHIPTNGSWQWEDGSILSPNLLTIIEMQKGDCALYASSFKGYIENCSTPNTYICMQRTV

T6: recombinant cynomolgus NKG2D-Fc fusion protein (cynomolgus; human, UniProt P61252 73-216)
T6 construct: extracellular domain; not shown: human IgG1 Fc domain
T6 sequence (looked up): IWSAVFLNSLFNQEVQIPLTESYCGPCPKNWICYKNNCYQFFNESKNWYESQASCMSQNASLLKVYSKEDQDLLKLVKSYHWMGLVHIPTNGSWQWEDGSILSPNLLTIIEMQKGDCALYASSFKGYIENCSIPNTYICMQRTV


Experiments:
human DLL3-His = molecular target: T1, human DLL3-His; assay: SPR (Biacore 8K), 37 C, antibody captured on anti-human Fc, DLL3-His 0.411-300 nM injected, 1:1 fit
Excerpt: The kinetics of binding of different humanized variants and parental murine 5E7 antibody to human DLL3-His was studied by Surface Plasmon Resonance using a Biacore 8K instrument. Briefly, anti-hFc and anti-mFc IgG proteins were covalently immobilized onto different channels of CMS chip to allow simultaneous analysis of human and murine antibodies. m5E7 was captured on the anti-mouse Fc channel and humanized variants were captured on the anti-human Fc channel at a desired capture level of […] in HBS-EP+ buffer supplemented with 0.1% BSA. Three buffer blanks and human DLL3-His (analyte) at concentrations 0.411-300 nM (in three fold dilutions) were injected over the surface with captured murine or humanized 5E7 for 300 second association time and let dissociate for 600 second at a flow rate of 30 μL/min. The surfaces were subjected to regeneration with three 20-second pulses of 10 mM glycine pH 1.70 at a flow rate of 100 μL/min between every concentration of analyte. The experiment was conducted at 37° C. Data were double referenced and a 1:1 fit model was applied to the sensorgrams in the Biacore Insight Evaluation software.
The kinetic parameters of human DLL3-His binding to murine and humanized variants of 5E7 antibody variants were calculated and shown in Table 39.

[1] = molecular target: T2, recombinant human DLL3 (ELISA coat); assay: ELISA, plate coated with recombinant human DLL3 0.5 µg/ml, anti-mouse IgG-HRP
Method: (§1) To investigate the binding of anti-DLL3 antibodies to human DLL3, wells of high binding flat-bottom plates were coated with recombinant human DLL3 diluted to 0.5 μg/ml. To assess cross-reactivity of the antibodies to DLL1/DLL4, which are closely related family members to DLL3, plates were coated with recombinant human DLL1 diluted to 1 μg/ml, or human DLL4 diluted to 0.5 μg/ml. […] Binding was detected using anti-mouse IgG-HRP and 3,3′,5,5′-Tetramethylbenzidine (TMB) substrate. Signals were normalized to the corresponding positive control antibody.
Table 38 lists the calculated EC₅₀ based on the binding data from FIG. 24.

recombinant human DLL1 = molecular target: T3, recombinant human DLL1; assay: ELISA, plate-bound recombinant human DLL1 (1 µg/mL), anti-mouse IgG-HRP/TMB, % of positive control max
Method: as §1

[2] = molecular target: T4, recombinant mouse NKG2D-Fc fusion …; assay: ELISA, plate-bound recombinant mouse NKG2D-Fc, anti-human kappa-HRP/TMB
Excerpt: (§2) The nucleic acid sequences of human, mouse or cynomolgus NKG2D ectodomains were fused with nucleic acid sequences encoding human IgG1 Fc domains and introduced into mammalian cells to be expressed. After purification, NKG2D-Fc fusion proteins were adsorbed to wells of microplates. After blocking the wells with bovine serum albumin to prevent non-specific binding, NKG2D-binding domains were titrated and added to the wells pre-adsorbed with NKG2D-Fc fusion proteins. Primary antibody binding was detected using a secondary antibody which was conjugated to horseradish peroxidase and specifically recognizes a human kappa light chain to avoid Fc cross-reactivity. 3,3′,5,5′-Tetramethylbenzidine (TMB), a substrate for horseradish peroxidase, was added to the wells to visualize the binding signal, whose absorbance was measured at 450 nm and corrected at […]. An NKG2D-binding domain clone, an isotype control or a positive control (comprising heavy chain and light chain variable domains selected from SEQ ID NOs:101-104, or anti-mouse NKG2D clones MI-6 and CX-5, eBioscience, San Diego, Calif.) was added to each well.

[3] = molecular target: T5, recombinant human NKG2D-Fc fusion …; assay: ELISA, plate-bound recombinant human NKG2D-Fc, anti-human kappa-HRP/TMB
Excerpt: as §2

[4] = molecular target: T6, recombinant cynomolgus NKG2D-Fc fusion …; assay: ELISA, plate-bound recombinant cynomolgus NKG2D-Fc, anti-human kappa-HRP/TMB
Excerpt: as §2

Binder | Kd (human DLL3-His) [nM] | koff (human DLL3-His) [s⁻¹] | kon (human DLL3-His) [M⁻¹ s⁻¹] | binding result [2] | other results
humanized anti-DLL3 antibody h5E7-YD-A6 (antibody, V domains shown, Expressed as IgG1 mAb: human IgG1 CH1-CH2-CH3 and human constant kappa; also called A6 variant) VH: QVQLVQSGAEVKKPGASVKVSCKASGFNIKDDYIHWVRQAPGQGLEWMGWIDSENGDTEYASKFQGRVTITADTSANTAYMELSSLRSEDTAVYYCATSSYWSYDLFVYWGQGTLVTVSS VL: DVQMTQSPSSLSASVGDRVTITCKSSQSLLHSNGKTYLNWLQQKPGQAPKLLLYLVSKLESGVPSRFSGSGSGTDYTLTISSLQPEDFATYYCLQTTHLYTFGQGTKLEIK | 1.1 | 0.000434 | 396000 | – | –
humanized anti-DLL3 antibody h5E7-YD-B5 (antibody, V domains shown, Expressed as IgG1 mAb: human IgG1 CH1-CH2-CH3 and human constant kappa; also called B5 variant) VH: QVQLVQSGAEVKKPGASVKVSCKASGFNIKDDYIHWVRQAPGQGLEWMGWIDSENGDTEYASKFQGRVTITADTSANTAYMELSSLRSEDTAVYYCATSTYWSYDLFVYWGQGTLVTVSS VL: DVQMTQSPSSLSASVGDRVTITCKSSQSLLHSNGKTYLNWLQQKPGQAPKLLLYLVSKLESGVPSRFSGSGSGTDYTLTISSLQPEDFATYYCLQTTHLYTFGQGTKLEIK | 0.27 | 0.00013 | 474000 | – | –
humanized anti-DLL3 antibody h5E7-YD-C6 (antibody, V domains shown, Expressed as IgG1 mAb: human IgG1 CH1-CH2-CH3 and human constant kappa; also called C6 variant) VH: QVQLVQSGAEVKKPGASVKVSCKASGFNIKDDYIHWVRQAPGQGLEWMGWIDSENGDTEYASKFQGRVTITADTSANTAYMELSSLRSEDTAVYYCATSEYYSYDLFVYWGQGTLVTVSS VL: DVQMTQSPSSLSASVGDRVTITCKSSQSLLHSNGKTYLNWLQQKPGQAPKLLLYLVSKLESGVPSRFSGSGSGTDYTLTISSLQPEDFATYYCLQTTHLYTFGQGTKLEIK | 3.35 | 0.00137 | 409000 | – | –
humanized anti-DLL3 antibody h5E7-YD-F3 (antibody, V domains shown, Expressed as IgG1 mAb: human IgG1 CH1-CH2-CH3 and human constant kappa; also called F3 variant) VH: QVQLVQSGAEVKKPGASVKVSCKASGFNIKDDYIHWVRQAPGQGLEWMGWIDSENGDTEYASKFQGRVTITADTSANTAYMELSSLRSEDTAVYYCATSSYWSYDLLVYWGQGTLVTVSS VL: DVQMTQSPSSLSASVGDRVTITCKSSQSLLHSNGKTYLNWLQQKPGQAPKLLLYLVSKLESGVPSRFSGSGSGTDYTLTISSLQPEDFATYYCLQTTHLYTFGQGTKLEIK | 1.29 | 0.000405 | 312000 | – | –
anti-DLL3 antibody clone 10F5 (antibody, V domains shown, Murine antibody from a mouse hybridoma) VH: QLQLVQSGPELMRPGETVKISCKASGYTFTTYGMNWVKQAPGKGLKWVGWINTYSGVPTYADDFKGRFAFSLESSASTAFLQINNLKDEDTATYFCARFGNYGFDCWGQGTTLTVSS VL: DIVMTQSPSSLSVSAGEKVTMSCKSSQSLLNSGNQKNYLAWYQQKPGQPPKLLIYGASTRESGVPDRFTGSGSGTDFTLTISSVQAEDLAVYYCQNDHIYPYTFGGGTKLEIK | – | – | – | – | EC50 [1]: 0.64 nM; binding result (recombinant human DLL1): no binding
ADI-27705 (antibody, V domains shown) VH: QVQLQQWGAGLLKPSETLSLTCAVYGGSFSGYYWSWIRQPPGKGLEWIGEIDHSGSTNYNPSLKSRVTISVDTSKNQFSLKLSSVTAADTAVYYCARARGPWSFDPWGQGTLVTVSS VL: not shown | – | – | – | binds | EC50 (read off the curve) [3]: ~0.6 nM; binding result [4]: binds
ADI-27741 (antibody, V domains shown) VH: QVQLQQWGAGLLKPSETLSLTCAVYGGSFSGYYWSWIRQPPGKGLEWIGEIDHSGSTNYNPSLKSRVTISVDTSKNQFSLKLSSVTAADTAVYYCARARGPWSFDPWGQGTLVTVSS VL: DIQMTQSPSTLSASVGDRVTITCRASQSIGSWLAWYQQKPGKAPKLLIYKASSLESGVPSRFSGSGSGTEFTLTISSLQPDDFATYYCQQSNSYYTFGGGTKVEIK | – | – | – | binds | binding result [3]: binds; binding result [4]: binds
ADI-27724 (antibody, V domains shown) VH: QVQLQQWGAGLLKPSETLSLTCAVYGGSFSGYYWSWIRQPPGKGLEWIGEIDHSGSTNYNPSLKSRVTISVDTSKNQFSLKLSSVTAADTAVYYCARARGPWSFDPWGQGTLVTVSS VL: not shown | – | – | – | – | EC50 (read off the curve) [2]: ~8 nM; EC50 (read off the curve) [3]: ~10 nM; EC50 (read off the curve) [4]: ~10 nM
ADI-28226 (antibody, V domains shown, also called C26) VH: QVQLQQWGAGLLKPSETLSLTCAVYGGSFSGYYWSWIRQPPGKGLEWIGEIDHSGSTNYNPSLKSRVTISVDTSKNQFSLKLSSVTAADTAVYYCARARGPWSFDPWGQGTLVTVSS VL: DIQMTQSPSTLSASVGDRVTITCRASQSISSWLAWYQQKPGKAPKLLIYKASSLESGVPSRFSGSGSGTEFTLTISSLQPDDFATYYCQQYGSFPITFGGGTKVEIK | – | – | – | binds | binding result [3]: binds; EC50 (read off the curve) [4]: ~1 nM
